Target: CCR1-rHDL (human C-C chemokine receptor 1 with C-terminal 1D4 tag, in reconstituted high density lipoprotein) (human) (UniProt P32246)
Assay: SPR; CCR1-rHDL captured via immobilised 1D4 antibody on a CM5 chip (~3000 RU); MIP-1α variant flowed at 0.13-5.0 μM; 25 °C; 20 mM HEPES, pH 7.2, 100 mM NaCl; empty-rHDL on the control flow cell; steady-state fit

Sequence of UniProt P32246 (P32246 whole entry): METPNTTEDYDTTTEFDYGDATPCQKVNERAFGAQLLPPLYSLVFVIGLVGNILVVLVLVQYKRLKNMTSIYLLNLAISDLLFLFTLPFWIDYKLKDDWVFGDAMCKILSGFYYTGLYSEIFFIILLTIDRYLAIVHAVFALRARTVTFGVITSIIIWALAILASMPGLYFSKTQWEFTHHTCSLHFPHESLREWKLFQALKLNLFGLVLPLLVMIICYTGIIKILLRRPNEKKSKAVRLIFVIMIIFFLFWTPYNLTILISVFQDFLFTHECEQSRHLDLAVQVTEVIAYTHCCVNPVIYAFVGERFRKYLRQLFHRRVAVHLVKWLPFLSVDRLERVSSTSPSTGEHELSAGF

MIP-1α variant (P8A/F13Y/E67Q) (ligand)
Kd: 2000 nM

From paper PMC4662715
